The target of data set [1] is T1, PrimPol^1–354 (human) (UniProt Q96LW4).
T1 sequence: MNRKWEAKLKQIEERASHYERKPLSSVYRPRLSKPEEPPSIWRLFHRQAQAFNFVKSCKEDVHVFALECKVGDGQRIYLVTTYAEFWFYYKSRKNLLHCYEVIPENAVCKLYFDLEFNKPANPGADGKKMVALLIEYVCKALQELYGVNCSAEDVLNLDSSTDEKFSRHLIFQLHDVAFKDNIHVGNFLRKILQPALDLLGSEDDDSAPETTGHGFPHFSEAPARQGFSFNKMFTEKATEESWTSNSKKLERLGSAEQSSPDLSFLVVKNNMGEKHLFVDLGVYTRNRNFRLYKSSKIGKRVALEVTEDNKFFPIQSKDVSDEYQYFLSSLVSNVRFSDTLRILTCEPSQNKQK

Data set [2] deals with T2, full-length human PrimPol (human) (UniProt Q96LW4).
T2 sequence: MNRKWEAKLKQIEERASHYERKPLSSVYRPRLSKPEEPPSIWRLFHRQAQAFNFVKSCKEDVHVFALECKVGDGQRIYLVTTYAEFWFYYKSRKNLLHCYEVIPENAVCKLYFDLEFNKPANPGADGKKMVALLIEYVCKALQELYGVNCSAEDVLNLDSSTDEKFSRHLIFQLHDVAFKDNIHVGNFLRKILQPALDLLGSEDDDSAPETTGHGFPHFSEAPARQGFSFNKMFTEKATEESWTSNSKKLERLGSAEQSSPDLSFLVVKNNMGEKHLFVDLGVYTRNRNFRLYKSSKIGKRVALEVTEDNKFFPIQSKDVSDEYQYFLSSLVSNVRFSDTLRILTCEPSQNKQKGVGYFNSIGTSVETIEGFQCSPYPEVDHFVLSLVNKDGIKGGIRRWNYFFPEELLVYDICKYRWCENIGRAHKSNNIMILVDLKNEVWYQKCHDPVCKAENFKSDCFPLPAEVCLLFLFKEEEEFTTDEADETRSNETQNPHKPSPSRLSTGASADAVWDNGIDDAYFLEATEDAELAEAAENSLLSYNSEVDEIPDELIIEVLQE

Data set [3] deals with T3, PrimPol24-354 (AEP catalytic domain) (human, UniProt Q96LW4 24-354).
T3 sequence: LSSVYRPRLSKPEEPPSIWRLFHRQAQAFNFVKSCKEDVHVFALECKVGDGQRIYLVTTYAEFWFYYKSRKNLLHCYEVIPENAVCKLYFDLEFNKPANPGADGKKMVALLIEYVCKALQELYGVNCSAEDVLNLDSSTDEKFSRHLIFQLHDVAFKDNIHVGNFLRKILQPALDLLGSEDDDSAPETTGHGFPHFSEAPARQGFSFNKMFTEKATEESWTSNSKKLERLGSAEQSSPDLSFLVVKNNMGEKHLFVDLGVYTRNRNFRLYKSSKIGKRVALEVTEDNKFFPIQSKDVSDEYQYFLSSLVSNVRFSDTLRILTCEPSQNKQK
The experiment in a line: EMSA; PrimPol 0.05-1 uM, 10 mM Mg2+, no PolDIP2; EMSA: 10 mM Bis-Tris-propane-HCl pH 7.0, 10 mM MgCl2, 100 uM DTT, 20 nM DNA; 5% native PAGE, 0.5x TBE; binding temperature not stated. The conditions noted are these: protein: recombinant; label: 5'-HEX on primer; 3'-biotin on template; 20 bp duplex; template 5' overhang 77 nt. (In general: In EMSA bound probe runs differently from free probe, usually more slowly.)

Data set [4] has as its target T4, PolDIP2 (untagged) (UniProt Q9Y2S7 1-368).
T4 sequence: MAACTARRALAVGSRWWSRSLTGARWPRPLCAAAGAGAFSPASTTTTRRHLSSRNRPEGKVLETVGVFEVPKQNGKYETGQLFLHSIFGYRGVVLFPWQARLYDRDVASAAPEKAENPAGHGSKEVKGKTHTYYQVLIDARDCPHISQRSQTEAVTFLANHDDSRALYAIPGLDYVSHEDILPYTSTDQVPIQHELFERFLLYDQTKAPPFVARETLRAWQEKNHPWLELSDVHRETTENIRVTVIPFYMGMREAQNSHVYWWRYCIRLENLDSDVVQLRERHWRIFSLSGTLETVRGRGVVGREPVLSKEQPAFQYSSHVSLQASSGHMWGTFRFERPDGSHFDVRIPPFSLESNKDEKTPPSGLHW
The experiment in a line: EMSA; PolDIP2 alone (100 nM in Fig 2A), 10 mM Mg2+; EMSA: 10 mM Bis-Tris-propane-HCl pH 7.0, 10 mM MgCl2, 100 uM DTT, 20 nM DNA; 5% native PAGE, 0.5x TBE; binding temperature not stated. The conditions noted are these: protein: recombinant; tags: none (GST cleaved with PreScission protease); label: 5'-HEX on primer; 3'-biotin on template; 20 bp duplex; template 5' overhang 77 nt.

B1: GST-PolDIP2 (natural protein)
chain: SSRNRPEGKVLETVGVFEVPKQNGKYETGQLFLHSIFGYRGVVLFPWQARLYDRDVASAAPEKAENPAGHGSKEVKGKTHTYYQVLIDARDCPHISQRSQTEAVTFLANHDDSRALYAIPGLDYVSHEDILPYTSTDQVPIQHELFERFLLYDQTKAPPFVARETLRAWQEKNHPWLELSDVHRETTENIRVTVIPFYMGMREAQNSHVYWWRYCIRLENLDSDVVQLRERHWRIFSLSGTLETVRGRGVVGREPVLSKEQPAFQYSSHVSLQASSGHMWGTFRFERPDGSHFDVRIPPFSLESNKDEKTPPSGLHW
Turning to B1, the K half of the stimulation of primer extension by PrimPol 1-354 (20 nM) on 20/50-mer DNA, GST-PolDIP2 0-120 nM in data set [1] was 33.9 nM. Besides, the K half of the stimulation of primer extension by PrimPol (20 nM) on 20/50-mer DNA, GST-PolDIP2 0-120 nM in data set [2] was 41 nM.

B2: 20/97-mer primer/template (HP-20 / ND-97) (mixed)
DNA 1: TGTCGTCTGTTCGGTCGTTC
DNA 2: ACCGCGAACTTGAATTCTAGTTCAGTCTAAATGCTCTCAAGCACTGAGCAATTCACAACATATGGCTTTCGATTACCGAACGACCGAACAGACGACA
For the molecule B2, the binding result in data set [3] was “binds”; in data set [4], “no binding”.
